# Measured values reported in patent publication US20250206841A1 (ADEPT THERAPEUTICS, published 2025).
# Numbering of substitutions follows the chain as printed.
# T1: human Trop-2 expressed on cell surface (human, UniProt P09758 27-323)
# T1 sequence (looked up): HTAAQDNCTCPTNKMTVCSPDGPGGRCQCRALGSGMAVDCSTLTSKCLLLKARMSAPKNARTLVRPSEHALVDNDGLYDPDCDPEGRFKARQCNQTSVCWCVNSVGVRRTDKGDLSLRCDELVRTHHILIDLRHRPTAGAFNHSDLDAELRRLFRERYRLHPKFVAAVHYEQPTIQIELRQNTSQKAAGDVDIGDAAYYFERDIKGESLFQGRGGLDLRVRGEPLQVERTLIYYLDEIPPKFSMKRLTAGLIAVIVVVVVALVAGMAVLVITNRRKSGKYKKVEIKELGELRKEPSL
# T2: human Trop-2-His protein (human, UniProt P09758 27-274)
# T2 construct: extracellular domain; Assay paragraphs say only 'Trop-2-His'; also called hTrop-2; Kactus Cat #TRP-HM121; not shown: His tag
# T2 sequence (looked up): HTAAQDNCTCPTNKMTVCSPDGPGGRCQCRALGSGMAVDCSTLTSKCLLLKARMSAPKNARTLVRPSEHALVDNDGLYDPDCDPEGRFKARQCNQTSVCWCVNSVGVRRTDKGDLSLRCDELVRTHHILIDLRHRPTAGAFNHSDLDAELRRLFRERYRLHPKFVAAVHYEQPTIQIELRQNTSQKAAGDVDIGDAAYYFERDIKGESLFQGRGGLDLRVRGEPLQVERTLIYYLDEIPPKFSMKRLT
# T3: cynomolgus Trop-2-His protein (cynomolgus, UniProt P09758 27-274 (human entry))
# T3 construct: also called cynmolgus Trop-His; Kactus Cat #TRP-CM121; not shown: His tag
# T3 chain: T2 sequence (looked up) with M36V, S67N, G139S, I204V
# T4: human Trop-1 (EpCAM) (human, UniProt P16422 24-265, limits assumed)
# T4 sequence (looked up): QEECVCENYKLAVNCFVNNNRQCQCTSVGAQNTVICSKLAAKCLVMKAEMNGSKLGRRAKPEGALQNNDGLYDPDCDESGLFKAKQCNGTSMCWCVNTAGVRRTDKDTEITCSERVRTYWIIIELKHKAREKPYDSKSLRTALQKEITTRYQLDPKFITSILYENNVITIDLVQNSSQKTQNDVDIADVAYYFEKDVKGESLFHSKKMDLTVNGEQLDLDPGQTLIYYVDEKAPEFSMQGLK
# B1: 9D7-2 (antibody, V domains shown)
# VH: QSLEESGGDLVQPGASLTLTCKASGFDLNNYSILWVRQAPGKGLEWIGSIYISGGSTYYANWAKGRFAISKTSSTTVTLQMTSLTAADTATYFCARDDGTASYYLNLWGPGTLVTVSS
# VL: YDMTQTPASVSEPVGGTVTIKCQASEDIYKLLAWYQQKPGQPPKLLIYAASDLESGVPSRFKGRGSGTDYTLTISDLEAADAATYYCQQAYTIGNIDNSFGGGTEVVVK
# B2: 10A9-2 (antibody, V domains shown)
# VH: B1 VH with S32A, I33M, S56T, Y59F, N61S, K64T, A101T
# VL: B1 VL with E12A, P13A, K30S, A49G, D52N, R64S, D69E, A80D, S99A
# B3: 10A9 (antibody, V domains shown)
# VH: B1 VH with S32A, I33M, S49C, S56T, Y59F, N61S, K64T, A101T
# VL: B1 VL with E12A, P13A, K30S, A49G, D52N, R64S, D69E, A79C, A80D, S99A
# notes: Rabbit-derived clone; LEM construct: VH + rabbit IgG CH1 + human IgG1 CH2-CH3
# B4: 5D4 (antibody, V domains shown)
# VH: QQLEESGGGLVKPEGSLTLTCKGSGFDFSGTYWMWWVRQAPGKGLEWIACIYVGSGSSTYYASWAKGRFTISSTSSTAVTLQATSLTAADTATYFCARGATNNVFMNYFNLWGPGTLVTVSS
# VL: FEMTQTPSSVSEPVGGTVTIKCQASEDISSNLGWYQQKPGQPPKLLIYGASTLASGVPSRFKGSGSGTEFTLTISDLECADAATYYCQTSYYIDDGVNGFGGGTEVVVK
# notes: as for B3
# B5: 5D4-1 (antibody, V domains shown)
# VH: B4 VH with C50P
# VL: B4 VL with C79P
# B6: 74F11/15F5 (antibody, human IgG1, V domains shown)
# VH: QEQLKESGGGLVQPGGSLKLSCKASGFDFNNYGMSWVRQAPGKGLEWIAYIYPAFHNTYYANWVNGRFTISSDNAQNTVDLQLNSLTAADTATYFCARDAGSTDYNFNLWGPGTLVTVSS
# VL: DVVMTQTPASVEAAVGGTVTIKCQASEDIERYLAWYQQKPGQPPKLLIYEASKLPSGVSSRFSGSGYGTEFTLTISGVECADAATYYCQQALTIGYVDNPFGGGSEVVVK
# notes: LEM construct: VH + rabbit IgG CH1 + human IgG1 CH2-CH3
# Molecular target: T1, human Trop-2 expressed on cell surface
# Experiment: cell-based or functional assay
Binder,"Internalization %, MDA-MB-231, 0.25 µg/ml, 2 h","Internalization %, MDA-MB-231, 0.25 µg/ml, 4 h","Internalization %, MDA-MB-231, 0.5 µg/ml, 2 h","Internalization %, MDA-MB-231, 0.5 µg/ml, 4 h","Internalization %, MDA-MB-231, 1 µg/ml, 2 h","Internalization %, MDA-MB-231, 1 µg/ml, 4 h","Internalization %, MDA-MB-231, 2 µg/ml, 2 h","Internalization %, MDA-MB-231, 2 µg/ml, 4 h"
B1,52%,63%,49%,58%,51%,62%,48%,59%
B2,46%,55%,44%,55%,43%,57%,45%,58%
B3,54%,57%,47%,53%,40%,55%,38%,49%
B4,56%,65%,49%,66%,65%,51%,60%,66%
B5,58%,66%,56%,61%,59%,64%,57%,63%
B6,42%,52%,37%,45%,42%,48%,39%,46%

# Molecular target: T1, human Trop-2 expressed on cell surface
# Experiment: cell-based or functional assay
# Remark: another data set of the same source
Binder,"Internalization %, MCF-7, 0.25 µg/ml, 1 h","Internalization %, MCF-7, 0.25 µg/ml, 2 h","Internalization %, MCF-7, 0.25 µg/ml, 4 h","Internalization %, MCF-7, 0.5 µg/ml, 1 h","Internalization %, MCF-7, 0.5 µg/ml, 2 h","Internalization %, MCF-7, 0.5 µg/ml, 4 h"
B1,29%,42%,57%,28%,42%,52%
B2,28%,37%,48%,31%,47%,64%
B3,15%,33%,45%,26%,39%,49%
B4,44%,52%,64%,62%,59%,74%
B5,59%,57%,62%,42%,56%,73%
B6,22%,35%,64%,22%,54%,50%

# Molecular target: T2, human Trop-2-His protein
# Experiment: ELISA, coated Trop-2 protein
# Method: (§1) Purified antibodies were tested by ELISA to confirm their binding and affinity against human and cynomolgus Trop-2-His protein. Briefly, 96-well Maxisorp plates (Nunc) were coated with 100 μl/well of 0.5 μg/ml human (Kactus Cat #TRP-HM121, or Sino Biological, Cat #10428-HO8H) or cynomolgus Trop-2 protein (Kactus Cat #TRP-CM121, or Sino Biological, Cat #90893-CO8H) diluted in 1×PBS (GIBCO) overnight at 4° C. Plates were washed four times with 300 μl/well washing buffer (1×PBST, diluted from 20×PBST (Thermo Scientific) with distilled water)) and then blocked with 300 μl/well of blocking buffer (1×PBST/3% BSA (BSA, Sigma)) for 2 hours at RT on plate shaker at 100 rpm. Plates were washed and added with 100 μl/well of testing antibodies, which were serial diluted with assay buffer (PBST/1% BSA). The antibodies were incubated at room temperature for 2 hours on plate shaker at 100 rpm. Plates were washed. One hundred microliters (100 μl) of 1:10,000 diluted horseradish peroxidase (HRP) conjugated anti-hIgG antibody (Jackson Immuno Research) was added into each well and incubated at room temperature for 1 hour on plate shaker at 100 rpm. Plates were washed and added with 100 μl/well TMB substrate for color development in dark at room temperature for up to 10 minutes. After addition of 50 μl/well of stop solution (1N H₂SO₄), plates were read at 450 nm on a plate reader (SpectraMax M5). EC₅₀ values were calculated using Graphpad Prism. Sacituzumab govitecan, was used as positive control. Anti-HEL.hIgG1 was used as isotype control.
row,Binder,EC50
1,B1,0.02 nM
2,B2,0.014 nM
3,B3,0.017 nM
4,B4,0.016 nM
5,B5,0.018 nM
6,B6,0.013 nM

# Molecular target: T3, cynomolgus Trop-2-His protein
# Experiment: ELISA, coated Trop-2 protein
# Method: as §1
row,Binder,EC50
1,B1,0.014 nM
2,B2,0.016 nM
3,B3,0.015 nM
4,B4,0.014 nM
5,B5,0.023 nM
6,B6,0.014 nM

# Molecular target: T1, human Trop-2 expressed on cell surface
# Experiment: flow cytometry, MCF-7 cells
# Method: Cells were then resuspended in FACS buffer (1×DPBS/1% FBS) at 10⁶/ml concentration. One hundred microliter (100 μl) of cells were aliquoted into a single well in 96 well plates. The antibodies to be tested were serially diluted at 1:3 fold starting at 15 μg/mL and were then added into each well. The antibodies were mixed with cells and the mixtures were incubated on ice for 1 hour. After washing with FACS buffer, one hundred microliter (100 μl) of 1:400 diluted PE-conjugated anti-human Fc secondary antibody (Jackson Immuno Research) was added into each well and incubated for 30 minutes on ice. After washing with FACS buffer, stained cells were resuspended at diluted 7-ADD (Biolegend, used at 1:100 dilution) and analyzed on Guava 11HT or 5HT (Luminex). Data was analyzed using Flowjo software. EC₅₀ values were calculated using GraphPad Prism. Sacitnzurnab govitecan was used as positive control. Anti-HEL.hIgG1 was used as isotype negative control. Similar assay was performed using MCF-7 cells (known to express human Trop-2).
row,Binder,EC50
1,B1,1 nM
2,B2,1.8 nM
3,B3,1.4 nM
4,B4,1.2 nM
5,B5,1 nM
6,B6,0.9 nM

# Molecular target: T4, human Trop-1 (EpCAM)
# Experiment: ELISA, similar to Table 24
row,Binder,binding result
1,B1,no binding
2,B2,no binding
3,B3,no binding
4,B4,no binding
5,B5,no binding
6,B6,no binding
